Results from patent US20250186594A1.

Key:
[1] = target: IL-18 variant SEQ ID NO: 6 (E6K, V11I, C38A, K53A, T63A, C68A, C76A, D98C, C127A) (human) (UniProt Q14116); experiment: cell-based or functional assay
[2] = target: IL-18 variant SEQ ID NO: 207 (V11I, C38A, M51G, K53A, C76A, C127A) (human) (UniProt Q14116); experiment: cell-based or functional assay
[3] = target: IL-18 variant SEQ ID NO: 62 (E6K, C38A, K53A, C127A) (human) (UniProt Q14116); experiment: cell-based or functional assay
[4] = target: IL-18 variant SEQ ID NO: 8 (E6K, V11I, C38A, K53A, T63A, C68A, C76A, T95C, C127A) (human) (UniProt Q14116); experiment: cell-based or functional assay
[5] = target: IL-18 variant SEQ ID NO: 57 (E6K, C38S, K53A) (human) (UniProt Q14116); experiment: cell-based or functional assay
[6] = target: IL-18 variant SEQ ID NO: 59 with 30 kDa PEG (E6K, C38A, K53A, C68-30kDPEG) (human) (UniProt Q14116); experiment: cell-based or functional assay
[7] = target: IL-18 variant SEQ ID NO: 4 with 30 kDa PEG (E6K, C38A, K53A, C68A, M86C-30kPEG) (human) (UniProt Q14116); experiment: cell-based or functional assay
[8] = target: IL-18 variant SEQ ID NO: 28 (E6K, C38A, K53A, T63A, C76A, C127A) (human) (UniProt Q14116); experiment: cell-based or functional assay
[9] = target: IL-18 variant SEQ ID NO: 30 with 30 kDa PEG (E6K, V11I, C38A, K53A, T63A, C76A, C127A, C68-30kPEG) (human) (UniProt Q14116); experiment: cell-based or functional assay
[10] = target: IL-18 variant SEQ ID NO: 225 (V11I, C38A, S55H, C76A, C127A) (human) (UniProt Q14116); experiment: cell-based or functional assay
[11] = target: IL-18 variant SEQ ID NO: 214 (V11I, D37A, C38A, K53A, C76A, C127A) (human) (UniProt Q14116); experiment: cell-based or functional assay
[12] = target: IL-18 variant SEQ ID NO: 212 (V11I, D35A, C38A, K53A, C76A, C127A) (human) (UniProt Q14116); experiment: cell-based or functional assay
[13] = target: IL-18 variant SEQ ID NO: 30 with 20 kDa PEG (E6K, V11I, C38A, K53A, T63A, C76A, C127A, C68-20kPEG) (human) (UniProt Q14116); experiment: cell-based or functional assay
[14] = target: IL-18 variant SEQ ID NO: 210 (V11I, E31A, C38A, K53A, C76A, C127A) (human) (UniProt Q14116); experiment: cell-based or functional assay
[15] = target: IL-18 variant SEQ ID NO: 9 (E6K, C38A, K53A, C68A, D98C) (human) (UniProt Q14116); experiment: cell-based or functional assay
[16] = target: IL-18 variant SEQ ID NO: 216 (V11I, C38A, D40A, K53A, C76A, C127A) (human) (UniProt Q14116); experiment: cell-based or functional assay
[17] = target: IL-18 variant SEQ ID NO: 63 (E6K, C38A, K53A, C76A, C127A) (human) (UniProt Q14116); experiment: cell-based or functional assay
[18] = target: IL-18 variant SEQ ID NO: 224 (V11I, C38A, C76A, Q103K, C127A) (human) (UniProt Q14116); experiment: cell-based or functional assay
[19] = target: IL-18 variant SEQ ID NO: 227 (V11I, C38A, S55T, C76A, C127A) (human) (UniProt Q14116); experiment: cell-based or functional assay
[20] = target: IL-18 variant SEQ ID NO: 211 (V11I, T34A, C38A, K53A, C76A, C127A) (human) (UniProt Q14116); experiment: cell-based or functional assay
[21] = target: IL-18 variant SEQ ID NO: 28 with 30 kDa PEG (E6K, C38A, K53A, T63A, C76A, C127A, C68-30kPEG) (human) (UniProt Q14116); experiment: cell-based or functional assay
[22] = target: IL-18 variant SEQ ID NO: 221 (V11I, C38A, K53A, C76A, D110A, C127A) (human) (UniProt Q14116); experiment: cell-based or functional assay
[23] = target: IL-18 variant SEQ ID NO: 215 (V11I, E31A, D37A, C38A, K53A, C76A, C127A) (human) (UniProt Q14116); experiment: cell-based or functional assay
[24] = target: IL-18 variant SEQ ID NO: 229 (V11I, C38A, C76A, S105K, C127A) (human) (UniProt Q14116); experiment: cell-based or functional assay
[25] = target: IL-18 variant SEQ ID NO: 228 (V11I, C38A, C76A, S105I, C127A) (human) (UniProt Q14116); experiment: cell-based or functional assay
[26] = target: IL-18 variant SEQ ID NO: 204 (V11I, C38A, K53A, C76A, C127A) (human) (UniProt Q14116); experiment: cell-based or functional assay
[27] = target: IL-18 variant SEQ ID NO: 60 (E6K, C38Q, K53A) (human) (UniProt Q14116); experiment: cell-based or functional assay
[28] = target: IL-18 variant SEQ ID NO: 223 (K8E, V11I, C38A, C76A, Q103R, C127A) (human) (UniProt Q14116); experiment: cell-based or functional assay
[29] = target: IL-18 variant SEQ ID NO: 11 (E6K, V11I, C38A, K53A, C76A, C127A) (human) (UniProt Q14116); experiment: cell-based or functional assay
[30] = target: Native IL-18 wild-type (SEQ ID NO: 1, native sequence) (human) (UniProt Q14116)
Sequence of Native IL-18 wild-type (SEQ ID NO: 1, native sequence) (human) (Q14116 37-193): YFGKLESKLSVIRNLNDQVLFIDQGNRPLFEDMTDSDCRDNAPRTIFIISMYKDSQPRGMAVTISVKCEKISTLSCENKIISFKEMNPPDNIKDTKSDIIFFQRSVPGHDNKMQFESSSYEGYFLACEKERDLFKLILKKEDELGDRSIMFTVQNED

Sequence of IL-18 variant SEQ ID NO: 221 (V11I, C38A, K53A, C76A, D110A, C127A) (human) (Q14116 37-193 V47I/C74A/K89A/C112A/D146A/C163A): as the sequence (Q14116 37-193) above, with V11I, C38A, K53A, C76A, D110A, C127A counted along it
Sequence of IL-18 variant SEQ ID NO: 57 (E6K, C38S, K53A) (human) (Q14116 other isoform, or with tags, fused parts or gaps C38S K53A C38S K53A): as the sequence (Q14116 37-193) above, with E6K, C38S, K53A counted along it
Sequence of IL-18 variant SEQ ID NO: 63 (E6K, C38A, K53A, C76A, C127A) (human) (Q14116 other isoform, or with tags, fused parts or gaps C38A K53A C76A C127A C38A K53A C76A C127A): as the sequence (Q14116 37-193) above, with E6K, C38A, K53A, C76A, C127A counted along it
Sequence of IL-18 variant SEQ ID NO: 229 (V11I, C38A, C76A, S105K, C127A) (human) (Q14116 37-193 V47I/C74A/C112A/S141K/C163A): as the sequence (Q14116 37-193) above, with V11I, C38A, C76A, S105K, C127A counted along it
Sequence of IL-18 variant SEQ ID NO: 30 with 30 kDa PEG (E6K, V11I, C38A, K53A, T63A, C76A, C127A, C68-30kPEG) (human) (Q14116 other isoform, or with tags, fused parts or gaps with the stated changes): as the sequence (Q14116 37-193) above, with E6K, V11I, C38A, K53A, T63A, C76A, C127A counted along it
Sequence of IL-18 variant SEQ ID NO: 30 with 20 kDa PEG (E6K, V11I, C38A, K53A, T63A, C76A, C127A, C68-20kPEG) (human) (Q14116 other isoform, or with tags, fused parts or gaps with the stated changes): as the sequence (Q14116 37-193) above, with E6K, V11I, C38A, K53A, T63A, C76A, C127A counted along it
Sequence of IL-18 variant SEQ ID NO: 59 with 30 kDa PEG (E6K, C38A, K53A, C68-30kDPEG) (human) (Q14116 other isoform, or with tags, fused parts or gaps C38A K53A C38A K53A): as the sequence (Q14116 37-193) above, with E6K, C38A, K53A counted along it
Sequence of IL-18 variant SEQ ID NO: 4 with 30 kDa PEG (E6K, C38A, K53A, C68A, M86C-30kPEG) (human) (Q14116 other isoform, or with tags, fused parts or gaps C38A K53A C68A M86C C38A K53A C68A M86C): as the sequence (Q14116 37-193) above, with E6K, C38A, K53A, C68A, M86C counted along it
Sequence of IL-18 variant SEQ ID NO: 210 (V11I, E31A, C38A, K53A, C76A, C127A) (human) (Q14116 37-193 V47I/E67A/C74A/K89A/C112A/C163A): as the sequence (Q14116 37-193) above, with V11I, E31A, C38A, K53A, C76A, C127A counted along it
Sequence of IL-18 variant SEQ ID NO: 60 (E6K, C38Q, K53A) (human) (Q14116 other isoform, or with tags, fused parts or gaps C38Q K53A C38Q K53A): as the sequence (Q14116 37-193) above, with E6K, C38Q, K53A counted along it
Sequence of IL-18 variant SEQ ID NO: 62 (E6K, C38A, K53A, C127A) (human) (Q14116 other isoform, or with tags, fused parts or gaps C38A K53A C127A C38A K53A C127A): as the sequence (Q14116 37-193) above, with E6K, C38A, K53A, C127A counted along it
Sequence of IL-18 variant SEQ ID NO: 225 (V11I, C38A, S55H, C76A, C127A) (human) (Q14116 37-193 V47I/C74A/S91H/C112A/C163A): as the sequence (Q14116 37-193) above, with V11I, C38A, S55H, C76A, C127A counted along it
Sequence of IL-18 variant SEQ ID NO: 227 (V11I, C38A, S55T, C76A, C127A) (human) (Q14116 37-193 V47I/C74A/S91T/C112A/C163A): as the sequence (Q14116 37-193) above, with V11I, C38A, S55T, C76A, C127A counted along it
Sequence of IL-18 variant SEQ ID NO: 228 (V11I, C38A, C76A, S105I, C127A) (human) (Q14116 37-193 V47I/C74A/C112A/S141I/C163A): as the sequence (Q14116 37-193) above, with V11I, C38A, C76A, S105I, C127A counted along it
Sequence of IL-18 variant SEQ ID NO: 8 (E6K, V11I, C38A, K53A, T63A, C68A, C76A, T95C, C127A) (human) (Q14116 other isoform, or with tags, fused parts or gaps with the stated changes): as the sequence (Q14116 37-193) above, with E6K, V11I, C38A, K53A, T63A, C68A, C76A, T95C, C127A counted along it
Sequence of IL-18 variant SEQ ID NO: 212 (V11I, D35A, C38A, K53A, C76A, C127A) (human) (Q14116 37-193 V47I/D71A/C74A/K89A/C112A/C163A): as the sequence (Q14116 37-193) above, with V11I, D35A, C38A, K53A, C76A, C127A counted along it
Sequence of IL-18 variant SEQ ID NO: 223 (K8E, V11I, C38A, C76A, Q103R, C127A) (human) (Q14116 other isoform, or with tags, fused parts or gaps V11I C38A C76A Q103R C127A V11I C38A C76A Q103R C127A): as the sequence (Q14116 37-193) above, with K8E, V11I, C38A, C76A, Q103R, C127A counted along it
Sequence of IL-18 variant SEQ ID NO: 207 (V11I, C38A, M51G, K53A, C76A, C127A) (human) (Q14116 37-193 V47I/C74A/M87G/K89A/C112A/C163A): as the sequence (Q14116 37-193) above, with V11I, C38A, M51G, K53A, C76A, C127A counted along it
Sequence of IL-18 variant SEQ ID NO: 11 (E6K, V11I, C38A, K53A, C76A, C127A) (human) (Q14116 other isoform, or with tags, fused parts or gaps V11I C38A K53A C76A C127A V11I C38A K53A C76A C127A): as the sequence (Q14116 37-193) above, with E6K, V11I, C38A, K53A, C76A, C127A counted along it
Sequence of IL-18 variant SEQ ID NO: 224 (V11I, C38A, C76A, Q103K, C127A) (human) (Q14116 37-193 V47I/C74A/C112A/Q139K/C163A): as the sequence (Q14116 37-193) above, with V11I, C38A, C76A, Q103K, C127A counted along it
Sequence of IL-18 variant SEQ ID NO: 9 (E6K, C38A, K53A, C68A, D98C) (human) (Q14116 other isoform, or with tags, fused parts or gaps C38A K53A C68A D98C C38A K53A C68A D98C): as the sequence (Q14116 37-193) above, with E6K, C38A, K53A, C68A, D98C counted along it
Sequence of IL-18 variant SEQ ID NO: 214 (V11I, D37A, C38A, K53A, C76A, C127A) (human) (Q14116 37-193 V47I/D73A/C74A/K89A/C112A/C163A): as the sequence (Q14116 37-193) above, with V11I, D37A, C38A, K53A, C76A, C127A counted along it
Sequence of IL-18 variant SEQ ID NO: 216 (V11I, C38A, D40A, K53A, C76A, C127A) (human) (Q14116 37-193 V47I/C74A/D76A/K89A/C112A/C163A): as the sequence (Q14116 37-193) above, with V11I, C38A, D40A, K53A, C76A, C127A counted along it
Sequence of IL-18 variant SEQ ID NO: 28 with 30 kDa PEG (E6K, C38A, K53A, T63A, C76A, C127A, C68-30kPEG) (human) (Q14116 other isoform, or with tags, fused parts or gaps C38A K53A T63A C76A C127A C38A K53A T63A C76A C127A): as the sequence (Q14116 37-193) above, with E6K, C38A, K53A, T63A, C76A, C127A counted along it
Sequence of IL-18 variant SEQ ID NO: 28 (E6K, C38A, K53A, T63A, C76A, C127A) (human) (Q14116 other isoform, or with tags, fused parts or gaps C38A K53A T63A C76A C127A C38A K53A T63A C76A C127A): as the sequence (Q14116 37-193) above, with E6K, C38A, K53A, T63A, C76A, C127A counted along it
Sequence of IL-18 variant SEQ ID NO: 204 (V11I, C38A, K53A, C76A, C127A) (human) (Q14116 37-193 V47I/C74A/K89A/C112A/C163A): as the sequence (Q14116 37-193) above, with V11I, C38A, K53A, C76A, C127A counted along it
Sequence of IL-18 variant SEQ ID NO: 211 (V11I, T34A, C38A, K53A, C76A, C127A) (human) (Q14116 37-193 V47I/T70A/C74A/K89A/C112A/C163A): as the sequence (Q14116 37-193) above, with V11I, T34A, C38A, K53A, C76A, C127A counted along it

IC50 of IL-18BPa-Fc on IFNγ secretion, NK-92 [1]: 25.3 nM
IC50 of IL-18BPa-Fc on IFNγ secretion, NK-92 [2]: 733 nM
IC50 of IL-18BPa-Fc on IFNγ secretion, NK-92 [3]: 284 nM
IC50 of IL-18BPa-Fc on IFNγ secretion, NK-92 [4]: 522 nM
IC50 of IL-18BPa-Fc on IFNγ secretion, NK-92 [5]: 146 nM
IC50 of IL-18BPa-Fc on IFNγ secretion, NK-92 [6]: 41.8 nM
IC50 of IL-18BPa-Fc on IFNγ secretion, NK-92 [7]: 126 nM
IC50 of IL-18BPa-Fc on IFNγ secretion, NK-92 [8]: 233 nM
IC50 of IL-18BPa-Fc on IFNγ secretion, NK-92 [9]: 34.3 nM
IC50 of IL-18BPa-Fc on IFNγ secretion, NK-92 [10]: 0.456 nM
IC50 of IL-18BPa-Fc on IFNγ secretion, NK-92 [11]: 2.22 nM
IC50 of IL-18BPa-Fc on IFNγ secretion, NK-92 [12]: 3.62 nM
IC50 of IL-18BPa-Fc on IFNγ secretion, NK-92 [13]: 44.2 nM
IC50 of IL-18BPa-Fc on IFNγ secretion, NK-92 [14]: 1.17 nM
IC50 of IL-18BPa-Fc on IFNγ secretion, NK-92 [15]: 1000 nM
IC50 of IL-18BPa-Fc on IFNγ secretion, NK-92 [16]: 3.23 nM
IC50 of IL-18BPa-Fc on IFNγ secretion, NK-92 [17]: 286 nM
IC50 of IL-18BPa-Fc on IFNγ secretion, NK-92 [18]: 0.823 nM
IC50 of IL-18BPa-Fc on IFNγ secretion, NK-92 [19]: 0.44 nM
IC50 of IL-18BPa-Fc on IFNγ secretion, NK-92 [20]: 21.3 nM
IC50 of IL-18BPa-Fc on IFNγ secretion, NK-92 [21]: 12.2 nM
IC50 of IL-18BPa-Fc on IFNγ secretion, NK-92 [22]: 3.18 nM
IC50 of IL-18BPa-Fc on IFNγ secretion, NK-92 [23]: 3.71 nM
IC50 of IL-18BPa-Fc on IFNγ secretion, NK-92 [24]: 0.176 nM
IC50 of IL-18BPa-Fc on IFNγ secretion, NK-92 [25]: 0.809 nM
IC50 of IL-18BPa-Fc on IFNγ secretion, NK-92 [26]: 1.62 nM
IC50 of IL-18BPa-Fc on IFNγ secretion, NK-92 [27]: 829 nM
IC50 of IL-18BPa-Fc on IFNγ secretion, NK-92 [28]: 7.29 nM
IC50 of IL-18BPa-Fc on IFNγ secretion, NK-92 [29]: 532 nM
IC50 (read off the curve); IFNγ production in the NK-92 assay (IFNg, ng/mL) [30]: 1 nM
Substance: Fc fused human IL-18BP isoform a (IL-18BPa) (from UniProt O95998 31-194) (Fc fusion)
